{"source": "paper PMC5749951", "about": "“Mechanistic insights into the active site and allosteric communication pathways in human nonmuscle myosin-2C” (eLife, 2017)", "binders": {"B1": {"name": "human nonmuscle myosin-2C motor domain (amino acids 1-799) directly fused to spectrin repeats 1 and 2 from Dictyostelium alpha-actinin, C-terminal Flag-tag (domain or fragment)", "chain": "MAAVTMSVPGRKAPPRPGPVPEAAQPFLFTPRGPSAGGGPGSGTSPQVEWTARRLVWVPSELHGFEAAALRDEGEEEAEVELAESGRRLRLPRDQIQRMNPPKFSKAEDMAELTCLNEASVLHNLRERYYSGLIYTYSGLFCVVINPYKQLPIYTEAIVEMYRGKKRHEVPPHVYAVTEGAYRSMLQDREDQSILCTGESGAGKTENTKKVIQYLAHVASSPKGRKEPGVPGELERQLLQANPILEAFGNAKTVKNDNSSRFGKFIRINFDVAGYIVGANIETYLLEKSRAIRQAKDECSFHIFYQLLGGAGEQLKADLLLEPCSHYRFLTNGPSSSPGQERELFQETLESLRVLGFSHEEIISMLRMVSAVLQFGNIALKRERNTDQATMPDNTAAQKLCRLLGLGVTDFSRALLTPRIKVGRDYVQKAQTKEQADFALEALAKATYERLFRWLVLRLNRALDRSPRQGASFLGILDIAGFEIFQLNSFEQLCINYTNEKLQQLFNHTMFVLEQEEYQREGIPWTFLDFGLDLQPCIDLIERPANPPGLLALLDEECWFPKATDKSFVEKVAQEQGGHPKFQRPRHLRDQADFSVLHYAGKVDYKANEWLMKNMDPLNDNVAALLHQSTDRLTAEIWKDVEGIVGLEQVSSLGDGPPGGRPRRGMFRTVGQLYKESLSRLMATLSNTNPSFVRCIVPNHEKRAGKLEPRLVLDQLRCNGVLEGIRICRQGFPNRILFQEFRQRYEILTPNAIPKGFMDGKQACEKMIQALELDPNLYRVGQSKIFFRAGVLAQLEEEREQTKSDYLKRANELVQWINDKQASLESRDFGDSIESVQSFMNAHKEYKKTEKPPKGQEVSELEAIYNSLQTKLRLIKREPFVAPAGLTPNEIDSTWSALEKAEQEHAEALRIELKRQKKIAVLLQKYNRILKKLENWATTKSVYLGSNETGDSITAVQAKLKNLEAFDGECQSLEGQSNSDLLSILAQLTELNYNGVPELTERKDTFFAQQWTGVKSSAETYKNT", "notes": "nonmuscle myosin-2C heavy chain (gene product of MYH14), human, motor domain, amino acids 1-799; alpha-actinin, Dictyostelium discoideum, spectrin repeats 1 and 2, used as artificial lever arm; Monomeric motor domain construct; also called NM2C; Hs NM2C; source: Sf9/baculovirus system, purified to electrophoretic homogeneity"}, "B2": {"name": "human nonmuscle myosin-2C motor domain (amino acids 1-799) R788K fused to spectrin repeats 1 and 2 from Dictyostelium alpha-actinin, C-terminal Flag-tag (domain or fragment)", "chain": "B1 chain with R788K", "notes": "nonmuscle myosin-2C heavy chain (gene product of MYH14), human, motor domain, amino acids 1-799, with R788K; alpha-actinin, Dictyostelium discoideum, spectrin repeats 1 and 2, used as artificial lever arm; Point mutant made by people on the fusion construct m1; also called Hs R788K; R788K (kinetic studies); source: Sf9/baculovirus system, purified to electrophoretic homogeneity"}, "B3": {"name": "human nonmuscle myosin-2C motor domain (amino acids 1-799) R788E fused to spectrin repeats 1 and 2 from Dictyostelium alpha-actinin, C-terminal Flag-tag (domain or fragment)", "chain": "B1 chain with R788E", "notes": "nonmuscle myosin-2C heavy chain (gene product of MYH14), human, motor domain, amino acids 1-799, with R788E; alpha-actinin, Dictyostelium discoideum, spectrin repeats 1 and 2, used as artificial lever arm; Point mutant made by people on the fusion construct m1; also called Hs R788E; R788E (kinetic studies); source: Sf9/baculovirus system, purified to electrophoretic homogeneity"}}, "note": "Numbering of substitutions follows the chain as printed. In names and notes the source's numbering stands."}
{"target": "T1, filamentous actin (F-actin) (UniProt P68135 1-377)", "assay": "stopped-flow light scattering + other: stopped-flow pyrene-actin fluorescence; dissociation equilibrium constant calculated as k-DA/k+DA; presence of ADP; salt free stopped-flow buffer", "conditions": "both partners purified", "units": {"Kd": "nM"}}
{"binder": "B1", "Kd": "~8"}
{"binder": "B2", "Kd": "26 to 43"}
{"binder": "B3", "Kd": "~9"}
{"target": "T2, pyrene-labeled filamentous actin (UniProt P68135 1-377, pyrene label)", "assay": "stopped-flow pyrene-actin fluorescence; dissociation of the myosin motor domain from pyrene-actin; salt free stopped-flow buffer; samples treated with apyrase prior to the assay (rigor conditions)", "conditions": "both partners purified", "units": {"koff": "s⁻¹"}}
{"binder": "B1", "koff": "~0.15"}
{"binder": "B2", "koff": "0.04 to 0.07"}
{"binder": "B3", "koff": "~0.031"}
{"target": "T1, filamentous actin (F-actin)", "assay": "stopped-flow light scattering + other: stopped-flow pyrene-actin fluorescence; dissociation equilibrium constant calculated as k-A/k+A; absence of nucleotide (rigor); salt free stopped-flow buffer", "conditions": "both partners purified", "units": {"Kd": "nM"}}
{"binder": "B1", "Kd": "~60"}
{"binder": "B2", "Kd": "24 to 42"}
{"binder": "B3", "Kd": "~47"}
{"target": "T2, pyrene-labeled filamentous actin", "assay": "stopped-flow pyrene-actin fluorescence; dissociation of the myosin motor domain from pyrene-actin in the presence of ADP; salt free stopped-flow buffer", "conditions": "both partners purified", "units": {"koff": "s⁻¹"}}
{"binder": "B1", "koff": "~0.004"}
{"binder": "B2", "koff": "0.067 to 0.11"}
{"binder": "B3", "koff": "~0.002"}
{"target": "T1, filamentous actin (F-actin)", "assay": "stopped-flow light scattering; myosin motor domain binding to F-actin in a stopped-flow system; salt free stopped-flow buffer; samples treated with apyrase prior to the assay (rigor conditions)", "conditions": "both partners purified", "units": {"kon": "M⁻¹ s⁻¹"}}
{"binder": "B1", "kon": "2.49e+06 ± 70000"}
{"binder": "B2", "kon": "1.65e+06 ± 30000"}
{"binder": "B3", "kon": "660000 ± 30000"}
{"target": "T1, filamentous actin (F-actin)", "assay": "stopped-flow light scattering; myosin motor domain binding to F-actin in the presence of ADP; salt free stopped-flow buffer", "conditions": "both partners purified", "units": {"kon": "M⁻¹ s⁻¹"}}
{"binder": "B1", "kon": "530000 ± 10000"}
{"binder": "B2", "kon": "2.53e+06 ± 50000"}
{"binder": "B3", "kon": "210000 ± 10000"}
